Consider 22 molecules from patent US20250051445A1.

Residue numbers refer to the chain shown, from its start.

B1: TPP-1391 Fab fragment (Fab, V domains shown)
VH: EVQLVQSGAEVKKPGASVKVSCKASGYKFTSYVMHWVRQAPGQGLEWMGYINPYRDVTKYAEKFQGRVTLTSDTSTSTAYMELSSLRSEDTAVYYCARGSYYDYEGFVYWGQGTLVTVSS
VL: QIQMTQSPSSLSASVGDRVTITCSATSSVSYMHWYQQKPGKAPKRWIYDTSKLASGVPSRFSGSGSGTDYTLTISSLQPEDAATYYCQQWSSNPLTFGGGTKVEIKR
B2: TPP-1388 Fab fragment (Fab, V domains shown)
VH: B1 VH with S31R, R55N
VL: B1 VL
B3: TPP-1389 Fab fragment (Fab, V domains shown)
VH: B1 VH with S31R, R55N
VL: B1 VL with S55R
B4: TPP-1363 Fab fragment (Fab, V domains shown)
VH: B1 VH with R55K
VL: B1 VL
B5: TPP-1372 Fab fragment (Fab, V domains shown)
VH: B1 VH with R55K
VL: B1 VL with S55R
B6: TPP-1390 Fab fragment (Fab, V domains shown)
VH: B1 VH with Y54R, R55N
VL: B1 VL
B7: TPP-1392 Fab fragment (Fab, V domains shown)
VH: B1 VH with Y54R, R55N
VL: B1 VL with S55R
B8: TPP-1387 Fab fragment (Fab, V domains shown)
VH: B1 VH with R55N
VL: B1 VL
B9: TPP-1375 Fab fragment (Fab, V domains shown)
VH: B1 VH with T30R, R55N, Y94H
VL: B1 VL
B10: TPP-1381 Fab fragment (Fab, V domains shown)
VH: B1 VH with R55K, Y94H
VL: B1 VL
B11: TPP-1376 Fab fragment (Fab, V domains shown)
VH: B1 VH with T30K, R55N, Y94H
VL: B1 VL
B12: TPP-1377 Fab fragment (Fab, V domains shown)
VH: B1 VH with S31K, R55N, Y94H
VL: B1 VL
B13: TPP-1360 Fab fragment (Fab, V domains shown)
VH: B1 VH with S31R, R55N, Y94H
VL: B1 VL
B14: TPP-1384 Fab fragment (Fab, V domains shown)
VH: B1 VH with R55N, Y94H
VL: B1 VL with S55K
B15: TPP-1380 Fab fragment (Fab, V domains shown)
VH: B1 VH with Y94H
VL: B1 VL
B16: TPP-1367 Fab fragment (Fab, V domains shown)
VH: B1 VH with R55N, Y94H
VL: B1 VL with S55R
B17: TPP-1393 Fab fragment (Fab, V domains shown)
VH: B1 VH with R55N
VL: B1 VL with S55R
B18: TPP-1382 Fab fragment (Fab, V domains shown)
VH: B1 VH with R55N, Y94H
VL: B1 VL with S30R
B19: TPP-1383 Fab fragment (Fab, V domains shown)
VH: B1 VH with R55N, Y94H
VL: B1 VL with S30K
B20: TPP-1378 Fab fragment (Fab, V domains shown)
VH: B1 VH with Y54R, R55N, Y94H
VL: B1 VL
B21: TPP-1379 Fab fragment (Fab, V domains shown)
VH: B1 VH with Y54K, R55N, Y94H
VL: B1 VL
B22: TPP-1374, Fab fragment of BMA031 (V36) (Fab, V domains shown)
VH: B1 VH with R55N, Y94H
VL: B1 VL

The target in one test is α/β TCR/CD3 complex on Jurkat, Clone E6-1 cells (human) (UniProt P07766). Description: flow cytometry on Jurkat Clone E6-1 cells, Fab titration 10 µg/ml to 10 ng/ml; EC50 of MFI, fold decrease vs TPP-1374. Background: In flow cytometry, cells or beads pass a laser one at a time.
UniProt P07766, sequence (P07766 23-207, chain 1 of 4): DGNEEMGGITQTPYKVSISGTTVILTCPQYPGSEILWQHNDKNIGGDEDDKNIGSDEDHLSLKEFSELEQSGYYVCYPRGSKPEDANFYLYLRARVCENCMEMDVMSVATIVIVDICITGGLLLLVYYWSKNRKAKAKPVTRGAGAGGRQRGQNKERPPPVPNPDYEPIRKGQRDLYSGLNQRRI
UniProt P07766, sequence (P09693 23-182, chain 2 of 4, further chain): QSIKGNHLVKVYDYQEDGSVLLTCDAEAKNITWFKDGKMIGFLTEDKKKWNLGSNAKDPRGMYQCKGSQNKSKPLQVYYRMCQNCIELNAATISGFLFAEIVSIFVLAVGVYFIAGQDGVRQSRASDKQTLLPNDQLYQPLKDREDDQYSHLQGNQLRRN
UniProt P07766, sequence (P04234 22-171, chain 3 of 4, further chain): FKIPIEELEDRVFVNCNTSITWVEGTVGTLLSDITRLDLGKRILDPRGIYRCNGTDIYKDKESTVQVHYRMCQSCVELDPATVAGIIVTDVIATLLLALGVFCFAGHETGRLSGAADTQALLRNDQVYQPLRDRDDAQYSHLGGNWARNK
UniProt P07766, sequence (P20963 22-164, chain 4 of 4, further chain): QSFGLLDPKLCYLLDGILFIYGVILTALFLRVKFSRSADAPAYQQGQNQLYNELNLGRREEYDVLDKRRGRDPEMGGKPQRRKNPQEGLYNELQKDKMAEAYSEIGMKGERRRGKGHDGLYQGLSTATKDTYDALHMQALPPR
B1 displayed a fold decrease in EC50 of 4.7 fold.

Consider B2, for which the fold decrease in EC50 was 8.1 fold.

B3 came in with a fold decrease in EC50 of 31.8 fold. B4 had a fold decrease in EC50 of 7.3 fold.

The molecule B5 registered a fold decrease in EC50 of 21.5 fold.

Take B6: the fold decrease in EC50 was 5.5 fold.

For the molecule B7, the fold decrease in EC50 was found to be 16.6 fold. For B8, the fold decrease in EC50 stood at 3.2 fold. For the molecule B9, the fold decrease in EC50 came out at 2.1 fold.

Regarding B10, the fold decrease in EC50 is 8.2 fold.

Consider B11, for which the fold decrease in EC50 was found to be 2.8 fold. Still for that read-out and setting: to B12 belongs 4.1 fold; to B13, 5.7 fold; to B14, 4.1 fold.

B15: the fold decrease in EC50 stood at 2.9 fold. B16 returned a fold decrease in EC50 of 8.8 fold. Regarding B17, the fold decrease in EC50 was 13.9 fold.

The target is the same in another test. The test is described as follows: flow cytometry on Jurkat Clone E6-1 cells, Fab titration 10 µg/ml to 10 ng/ml; AUC of MFI vs log concentration, gain vs TPP-1374.
B1: the % gain in binding AUC was 245%. For B18, the % gain in binding AUC is -66%. For B19, the % gain in binding AUC is -73%.

As to B2, the % gain in binding AUC was found to be 273%. As for B3, the % gain in binding AUC was 423%. Regarding B4, the % gain in binding AUC was determined as 380%. Turning to B5, the % gain in binding AUC turned out to be 246%. On the same count and under the same terms, for B6 the value was 270%; for B7, 813%; for B20, 79%. Take B8: the % gain in binding AUC worked out at 14%. Turning to B9, the % gain in binding AUC is 87%. Turning to B10, the % gain in binding AUC is 98%.

For the molecule B11, the % gain in binding AUC was found to be 83%. On the same count and under the same terms, for B12 the value was 56%. For B13, the % gain in binding AUC turned out to be 144%. Regarding B14, the % gain in binding AUC was 203%. Turning to B15, the % gain in binding AUC amounted to 18%. Same read-out and setting: to B16 belongs 220%. Consider B17, for which the % gain in binding AUC turned out to be 226%. As for B21, the % gain in binding AUC stood at 1%.

For a further test the target is unchanged. The test is described as follows: flow cytometry on Jurkat Clone E6-1 cells, Fab titration 10 µg/ml to 10 ng/ml; AUC of MFI vs log concentration; the reference itself, set to zero.
In the case of B22, the % gain in binding AUC is 0%.
